Experiment: yeast display, Sf9 membrane polyspecificity reagent, FACS + sequencing; frameworks hold sequencing errors
In short: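 Sorting gates, low and high (top ~1%), were placed on anti-HA fluorescence to track expression and on streptavidin fluorescence to track reagent binding. A clone's polyreactivity label is taken from the gate it came out of. The reagent was 10% biotinylated, detergent-solubilized Sf9 membrane, applied for 1 hour at 4 °C to galactose-induced yeast display cells.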

Row | Sequence | polyreactivity (PSR sort gate)
1 | QVQLEESGGGLVQPGGSLRLRCAASGITFYWNAMGWYRQAPVKERELVAGITNSGGGTYYADSVKGRFTISRDNSMYTVYLLMNSLKPEDSAVYYCAAEPTSWYFFYYVGDYLGQGTQVTVSS | high polyreactivity
2 | QVQLEESGGGVVQAGGSLRLSCAASGRIFDRYDMARYRQAPGKERELVASISSGGSTYYADSVKGRFTISRVTAKNPVYLQMNSLKPEDTAVYYCNAEARSRRYRYDYWGQGTQVTVSS | high polyreactivity
3 | QVQLEESGGRLLQAGGSLRLSCAASGCTFGSYDMGLYRQAPGKERELVARISSDGSTNYADSVKGRFSISRDNAKNTVYLQMNSLKPEDTAGYYCARDRKRQADDIGEFDYWGQGSQVTVSS | low polyreactivity
4 | QVQLEESGGRLVQAGGSLRLSCAASGFTFRYYAMGWYRQAPGKERELVAAITSGGSTNYADSVKGRFTISRDNAKNTVYLQMNSLKPEDTAVYYCKKVPWGSRRMDYWGQGTQVTVSS | high polyreactivity
5 | QVQLEESGGRLVQAGGSLRLTCAASGRTYARYAIGWNRQAPGKERQLVAAISRGGTTNYADSVKGRFTISRDNAKNTVYLQMNSLKPEDTAVYYCNRDFHLIHLSSARLDYWGQGTQVTVSS | low polyreactivity
6 | QVQLEESGGSLVQAAGSLRLSCAASGSIFSPYAMGWYRQAPGKERELVAAITWRGGTFYADSVKGRFTISRDNAKNTVDLQMNSLKPEDTAVYYCNARFGQTVKGTYGRYYYWGQGTHVTVSS | high polyreactivity
7 | QVQLEESGGVLVQAGGSLRLSCAASGSNFYLYAMGWYRQAPGKERELVAGITRSGGRTYYADSVKGRFTISRDNAKNTVYLQMNSLKPEDTAVYYCAAYLVVRIRYTQRYDYWGQGTQVTVSS | low polyreactivity
8 | QVQLEESGRGLVQAGGSLPLIFAASGSIIRGYAMGWYRPAPGKERELVAAINWSGSSTYYADSVKGRLTISRDNAKNTVNLQMNSLIPEDTAVYYCALVYYNRNLGGDYWGQGTKVTVSS | low polyreactivity
9 | QVQLEESGRGLVQAGGSLRLSCAASGSISGYYAMGWYRQAPGKERELVAVITSSGTSTYYADSVKGRFTISRDNAKNTVYLQMNSLKPEDTAVYDCWGQGTQVTVSS | low polyreactivity
10 | QVQLEESGRGLVQAGVSLRLSCAASGSTFYRYAMGWYRQAPGKERELVAANSQSGARTYYADSVKGRFTISRDNAKNTVYLQINSLKPEDTAVYYCAAYPVVNEFDYWGQGTQVTVSS | high polyreactivity
11 | QVQLEESGVGLVQAGGSLRFSCAASGRIFYSYAMGCDRQAPGKERELVATISSAGSTYYADSVKGRFTISRDNAKNTVYLQMNSLKPEDTAVYYCAARRPRRYGYWGLGTQVTVSS | high polyreactivity
12 | QVQLEESGVGLVQAGGSLRLSCAASGRTFHIYAMGWYRQAPGKERELVADIRGRSGSTYYADSVKGRFTISRDNAKITVYLQMNSLKPEDTAVYYCAVGRYPYCSARYRFDYWGQGTQVSVSS | high polyreactivity
13 | QVQLEESGVGLVQAGGSLRLSCAASGSTFQTYVMGWYRQAPGKERELVAAISSGGSTNYADSVKGRFTISRDNAKNTVYLQMNSLKPEDTAVYYCAKRWPYFRRGKDGYWGQGTQVTVSS | low polyreactivity
14 | QVQLEESGVGLVQAGGSLRLSCAASGYTFDYYDMAWYRQAPGKERELVAAISCSGGRTYYADSVKGRFTISRDNAKNTVYLQMNSLKPEDTAVYYCNTRYGALGKGGMDYWGQGTQVTVSS | high polyreactivity
15 | QVQLEESRGGLVQAGGSLRLSFAAYGFTYFGYAMGWYRQAPGKERELVAAISTIDGDTYYADSVKGRFTISRDNAKNTFYLLMNSLKPEDNAFYYCAADDYIDGDDYWGQGTQVSVSS | low polyreactivity
16 | QVQLEETGGGLVQAGGSLRLSCAASGITFGDYAMGWYRQAPGKERELVAAISFTGASTYYADSVKWRFTISRDNAKNTVYLLMNSLKPDDTPVYYCAADPYVPYQDFLSGFDFWGQGTQVTVSW | low polyreactivity
17 | QVQLEQSGGGLVQAGGSLRLSCAASGRTFVSNAMGWYRQAPGKERELVADITSGGSTDYADSVKGRFTISRDNANNTVYLQMNSLKPEDTAVYYCATDLWRWYGWFDYWGQGTQVTVSS | low polyreactivity
18 | QVQLGDSGGGLVQAGGSLRISCAASGNTFLYYGMGWYRQAPGKDRDLVAAITQSGGTTYYADSVHGRFTISRDNAKYTVYLQMNSQKPEDTAVYYCGATRYYYYTYVYDDRGDYWGQGTQVTVSS | low polyreactivity
19 | QVQLGESGGALVQAGGSLRLSCAASGSTIYAYDMGWYRPAPGKERELVAAISSGGSTYYADSVKGRFTFSRDNAKNTVYLQMNCLKPEDTAVYYCATEYTYELEASEPSDYDYWGQGTQVTVSS | low polyreactivity
20 | QVQLGESGGGLVHEGGSLRLSCAASGFINFANTMGLYRQAPGKERELVAAITSDGSTYYADSVKGRFTISRDNAKNTVYLQMNSLKPEDTAVYYCNAQSNYADLAYWNDYWGQGTQVTVSS | low polyreactivity
21 | QVQLGESGGGLVQAGGSLRFSCAASGRPFFVYGMGWSRQAPGKERELVAAISWNGGRTYYADSVKGRFTISRDKAKNTVYLQMKSLKPEDTAVYYCNARARDYTGPSSPIFYYWGQGTQVTVSS | low polyreactivity

Row | Sequence | polyreactivity (PSR sort gate)
22 | QVQLGESGGGLVQAGGSLRLSCAASAYIFGSYAMGRSRQAAGKERELVATISYRAGRTYYADSVKGRFTISRDNAKNTVYLQMNSLKPEYTAVYFSDADFVIDLEYDYWGQGTQVTVSS | low polyreactivity
23 | QVQLGESGGGLVQAGGSLRLSCAASGFIFPGYAMGLYRQAPGKERELVAAITGSGGSTYYADSVKGRFTISRDNAKYTVYVQMNSVKTEDTAVDYCGAYVSGYLWGYDYWGHGTQVTVSS | high polyreactivity
24 | QVQLGESGGGLVQAGGSLRLSCAASGFIFRNYAIGWYRPPPGKERELVAAISRSGGSKYYADCVKGRFTISRDKAKNSVYLQMNSLKPVDTAVYYCNKDPRGRIPVPGTWIMDYWGQGTQVTVSS | high polyreactivity
25 | QVQLGESGGGLVQAGGSLRLSCAASGFTFDFYAMGWYRPAPGKEWELVAAINWSGSSTYYADSVKGRFTISRDNAKNTDYLQMNSLKPEDTAVYYCAAQVYYTLFPDVYTMYYWGQGTQETVSS | high polyreactivity
26 | QVQLGESGGGLVQAGGSLRLSCAASGFTFGRYTMGWYRPAPGKERELVASITSSGARTYYADSVKGRFTISRDNAKNTVYLQMNSLKPEDTAVYYCNAGKRGSTYYYWGQGTQVTVSS | high polyreactivity
27 | QVQLGESGGGLVQAGGSLRLSCAASGGTFARNTMGWYRQAPGKERELVAAITRGGSSTYYADSVKGRFTISRDYAKNTVYLQMNSLKPEDTAVYYCNKSLRWLYPYYGTTGRYDYWGQGTQVTVSS | high polyreactivity
28 | QVQLGESGGGLVQAGGSLRLSCAASGIIFRYYAMAWYRQAPGKERELVAAISSSTGNTYYADSVKGRFTISRDNAKNTVYLQMNSLIPEDTAVYYCAARTRQISIVGYNYWGQGTQVTVSS | high polyreactivity
29 | QVQLGESGGGLVQAGGSLRLSCAASGNIFRYYAMGWYRQAPGKERELVAAITWSGGSTYYADSVKGRFTISRDNAKNTVYLQMNSLKQEDTAVYYCNTYRVPYRTVQDDYWGQGTQVTLSS | high polyreactivity
30 | QVQLGESGGGLVQAGGSLRLSCAASGNTFVSNAMGWYRQAPGKERELVAAINSGGSTNYADSVKGRFTISRDNAKNTVYLQMNSLKPEDTAVYYCNKDYDYPQRYWMDYWGQGTQVTVSS | low polyreactivity
31 | QVQLGESGGGLVQAGGSLRLSCAASGRIFPVNAMGWYRQAPGKERELVATITSYSSTYADSVKGRFTISRDNAMNTVVLQMNCLKPEDTAVYYCNADQGYFGYDYWGQGTQVTVSS | low polyreactivity
32 | QVQLGESGGGLVQAGGSLRLSCAASGRIFRNNAMGWYRQAPGKERELVAAITWSGGSTYYADSVKGRFTISRDNAKNTVYLQMNSLKPEDTAVYYCNAGRGYKYSYTYDYWGQGTQVTLSS | low polyreactivity
33 | QVQLGESGGGLVQAGGSLRLSCAASGRIFRWYAMGWYRQAPGKVRELVAAISRSGTSTYYADSVKGRFTISRDNAKNTVYLQMNSLKPEDTAVYYCAADAVIFGMDYWGQGTQVTVSS | low polyreactivity
34 | QVQLGESGGGLVQAGGSLRLSCAASGRIFWGYAMGWYRQAPGKERELVAAITRGTRTNYADSVKGRFTISRDNAKNTVYLQMNSLKPEDTAVYYCAADYRDSYLFYYWGQGTQVTVSS | high polyreactivity
35 | QVQLGESGGGLVQAGGSLRLSCAASGRIFWYNAMGWYRQAPGKERELVAGIRSGGSTNYADSVKGRFTISRDNAKNTVYLQMNSLKPDDTAVYYCNVDHEARKLHVSIKQLSDHWGQGTQVTVSS | low polyreactivity
36 | QVQLGESGGGLVQAGGSLRLSCAASGRTSTGYAMGWYRQAPGKERELVAGIDKIGGRTYYADSVKGRFTISRDNAKNTVYLQMNSLKPEDTAVYYCAKTRYFSVGTHWDYYYWGQGTQVTVSS | high polyreactivity
37 | QVQLGESGGGLVQAGGSLRLSCAASGSIFGLYAMGWYRQAPGKERELVATITSGSSTTYADSVKGRFTISRDNAKNTVYLQMNSLKPEVTAVYYCGVDDLYGFDYWGQGTQVTVSS | low polyreactivity
38 | QVQLGESGGGLVQAGGSLRLSCAASGSIFQPYAMGWYRQAPGKEREFVAAISRSGGMTYYADSVKGRFTISRDNEKNTVYLQMNSLKPEDTAVYYCATGRQVVRSYSEGDYSGQGTQVTVSS | low polyreactivity
39 | QVQLGESGGGLVQAGGSLRLSCAASGSIFSKYAKGSYRQAPGKERELVAAITMNGGSTYYADSVKGRFTISRDNAKNTVYFQMNSLKPEDTAVYYCSKSERPWWGYYYQFDYWGQGTQVTVSS | low polyreactivity
40 | QVQLGESGGGLVQAGGSLRLSCAASGSTFAPYAMGWYRQAPGKERELVAAISTGGSTNYADSVKGRFTISRDNAMNTVYFQMNSLKPEDTAVYYCNTGYFVWGFDYWGQGTQVTVSS | low polyreactivity
41 | QVQLGESGGGLVQAGGSLRLSCAASGSTFAYNDMGWYRQAPGKEMELVADIRSGGNTKYADSVKGRFTISRDNAKNTVYFQMNSLKPEDTAVYYCATDGYRIDVYHPDYRYDYWGQGTQVTVSS | low polyreactivity
